Assay results published in PMC10201420, “Structural basis for guide RNA selection by the RESC1–RESC2 complex”.

T1: RESC1;RESC2 (Trypanosoma brucei;Trypanosoma brucei, UniProt Q57XL7;Q586X1 22-473;33-492, |)
T1 sequence 1: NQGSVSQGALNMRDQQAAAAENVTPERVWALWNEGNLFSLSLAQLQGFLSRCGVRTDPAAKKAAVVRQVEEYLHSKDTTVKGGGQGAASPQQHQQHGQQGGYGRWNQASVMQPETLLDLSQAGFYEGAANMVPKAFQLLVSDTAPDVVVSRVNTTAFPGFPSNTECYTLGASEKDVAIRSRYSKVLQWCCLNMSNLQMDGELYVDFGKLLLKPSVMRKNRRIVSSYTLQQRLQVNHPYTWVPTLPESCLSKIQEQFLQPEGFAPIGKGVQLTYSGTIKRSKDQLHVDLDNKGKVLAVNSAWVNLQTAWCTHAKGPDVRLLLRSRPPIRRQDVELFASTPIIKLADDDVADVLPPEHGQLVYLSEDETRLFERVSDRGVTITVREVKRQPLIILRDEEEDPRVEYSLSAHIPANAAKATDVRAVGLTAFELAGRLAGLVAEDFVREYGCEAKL
T1 sequence 2: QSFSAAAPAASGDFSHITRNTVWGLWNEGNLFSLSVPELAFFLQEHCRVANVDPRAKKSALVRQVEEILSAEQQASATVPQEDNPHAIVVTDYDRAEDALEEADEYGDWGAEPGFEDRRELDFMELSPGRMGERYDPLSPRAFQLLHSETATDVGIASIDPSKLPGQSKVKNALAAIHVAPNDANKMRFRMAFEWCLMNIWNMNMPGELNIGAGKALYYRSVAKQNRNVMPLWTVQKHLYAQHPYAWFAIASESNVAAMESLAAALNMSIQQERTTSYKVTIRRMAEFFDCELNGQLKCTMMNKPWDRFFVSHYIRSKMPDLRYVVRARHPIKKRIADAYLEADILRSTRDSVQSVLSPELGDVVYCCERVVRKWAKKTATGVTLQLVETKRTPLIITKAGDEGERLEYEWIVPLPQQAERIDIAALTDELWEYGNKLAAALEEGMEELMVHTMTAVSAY

B1: gRNA gND7(506), 5'-triphosphate (ssRNA)
RNA: GGGAUAUAAAUACGAUGUAAAUAACCUGUAGUAUAGUUAGUGUAUAUAGUGAAA
modifications: 5'-triphosphate
B2: gRNA gND7(506), 5'-hydroxyl (ssRNA)
RNA: GGGAUAUAAAUACGAUGUAAAUAACCUGUAGUAUAGUUAGUGUAUAUAGUGAAA
modifications: 5'-OH, no triphosphate

Legend:
[1] = target: T1, RESC1;RESC2; assay: analytical SEC; SEC: 20 mM HEPES pH 7.5, 2 mM MgCl2, 1 mM DTT, variable NaCl; purification at 4 C; exact binding assay salt and temperature not in material; conditions: protein: recombinant;recombinant; tags: N-terminal 6xHis-3C (cleaved when needed);none; copies: 1;1
[2] = target: RESC1;RESC2 K311S/R402D (Trypanosoma brucei;Trypanosoma brucei, UniProt Q57XL7;Q586X1 22-473;33-492, |K311S;R402D); assay: as above; conditions: protein: recombinant;recombinant; tags: N-terminal 6xHis-3C (cleaved when needed);none; copies: 1;1

Binder | binding result [1] | binding result [2]
B1 | binds | no binding
B2 | no binding | 
